Measurements: patent US20040214349A1 (MURDOCH CHILDRENS RESEARCH INSTITUTE ROYAL CHILDREN S …, published 2004)

Biological target: the molecule itself
Experiment: non-reducing SDS-PAGE of immunoprecipitated His-WARP

B1: His-tagged full-length mouse WARP expressed in 293-EBNA cells (other)
chain: RSSHHHHHHIERGSTASDPQGDLLFLLDSSASVSHYEFSRVREFVGQLVATMSFGPGALRASLVHVGSQPHTEFTFDQYSSGQAIRDAIRVAPQRMGDTNTGLALAYAKEQLFAEEAGARPGVPKVLVWVTDGGSSDPVGPPMQELKDLGVTIFIVSTGRGNLLELLAAASAPAEKHLHFVDVDDLPIIARELRGSITDAMQPQQLHASEVLSSGFRLSWPPLLTADSGYYVLELVPSGKLATTRRQQLPGNATSWTWTDLDPDTDYEVSLLPESNVHLLRPQHVRVRTLQEEAGPERIVISHARPRSLRVSWAPALGPDSALGYHVQLGPLQGGSLERVEVPAGQNSTTVQGLTPCTTYLVTVTAAFRSGRQRALSAKACTASGARTRAPQSMRPEAGPREP
modifications: N-linked oligosaccharide (one or more; candidate sites Asn264 and Asn359)
notes: also called His-WARP; WARP-His
Does B1 bind?
Result: binds
